Reference: patent publication US20240261333A1 (published 2024)
Blank lines part the entries; values can stand above or below the binder they belong to.

What was measured:
Assay in all cases: co-IP with anti-FLAG, N-FLAG B3GNT2, mass spectrometry
[1] = target: RPL23 (human, UniProt P62829 1-140)
[2] = target: T1, SYNCRIP (human, UniProt O60506-3 2-562, limits assumed)
T1 construct: also called NP_001153148.1 (+1)
T1 sequence (looked up): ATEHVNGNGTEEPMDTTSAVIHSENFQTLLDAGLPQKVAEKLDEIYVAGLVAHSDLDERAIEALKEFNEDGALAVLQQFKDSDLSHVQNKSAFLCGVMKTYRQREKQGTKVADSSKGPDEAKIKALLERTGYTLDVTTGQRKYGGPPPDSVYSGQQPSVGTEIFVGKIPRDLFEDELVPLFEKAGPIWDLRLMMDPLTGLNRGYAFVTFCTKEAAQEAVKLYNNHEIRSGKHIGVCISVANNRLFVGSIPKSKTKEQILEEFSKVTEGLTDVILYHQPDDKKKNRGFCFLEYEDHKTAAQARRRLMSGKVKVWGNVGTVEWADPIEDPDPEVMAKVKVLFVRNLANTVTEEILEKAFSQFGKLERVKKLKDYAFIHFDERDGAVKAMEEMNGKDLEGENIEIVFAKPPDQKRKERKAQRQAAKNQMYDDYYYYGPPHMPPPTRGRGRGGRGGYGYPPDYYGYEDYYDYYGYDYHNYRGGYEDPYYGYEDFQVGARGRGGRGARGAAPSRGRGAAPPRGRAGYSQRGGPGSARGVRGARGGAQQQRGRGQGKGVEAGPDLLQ

[3] = target: T2, DHX9 (human, UniProt Q08211 1-1270)
T2 construct: also called NP_001348.2

[4] = target: T3, TM9SF1 (human, UniProt O15321-2 28-489, limits assumed)
T3 construct: also called NP_001014842.1 (+1)

[5] = target: T4, DDX17 (human, UniProt Q92841 1-729, limits assumed)
T4 construct: also called NP_001091974.1

[6] = target: T5, PLOD1 (human, UniProt Q02809 19-727)
T5 construct: also called NP_000293.2 (+1)
T5 sequence (looked up): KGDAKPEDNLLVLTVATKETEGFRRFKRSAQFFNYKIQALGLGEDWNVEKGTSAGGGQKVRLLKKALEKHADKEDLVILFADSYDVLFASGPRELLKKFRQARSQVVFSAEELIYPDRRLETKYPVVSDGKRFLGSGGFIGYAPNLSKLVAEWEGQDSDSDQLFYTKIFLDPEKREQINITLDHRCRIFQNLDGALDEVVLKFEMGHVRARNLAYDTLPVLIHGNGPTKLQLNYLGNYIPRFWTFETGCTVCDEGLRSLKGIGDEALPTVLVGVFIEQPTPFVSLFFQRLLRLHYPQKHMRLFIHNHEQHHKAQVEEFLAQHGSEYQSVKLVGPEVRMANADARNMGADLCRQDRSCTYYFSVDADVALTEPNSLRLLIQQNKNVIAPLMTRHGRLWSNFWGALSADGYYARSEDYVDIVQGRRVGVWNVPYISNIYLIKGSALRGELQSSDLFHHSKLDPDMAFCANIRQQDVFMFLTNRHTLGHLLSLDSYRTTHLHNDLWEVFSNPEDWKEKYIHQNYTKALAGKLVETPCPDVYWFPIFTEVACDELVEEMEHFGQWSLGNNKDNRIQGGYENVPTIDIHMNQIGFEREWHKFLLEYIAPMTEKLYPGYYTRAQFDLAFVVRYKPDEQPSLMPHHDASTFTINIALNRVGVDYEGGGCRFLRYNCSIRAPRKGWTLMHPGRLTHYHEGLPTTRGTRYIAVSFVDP

[7] = target: RPL6 (human, UniProt Q02878 2-288)

T3 sequence (O15321 other isoform, or with tags, fused parts or gaps limits assumed): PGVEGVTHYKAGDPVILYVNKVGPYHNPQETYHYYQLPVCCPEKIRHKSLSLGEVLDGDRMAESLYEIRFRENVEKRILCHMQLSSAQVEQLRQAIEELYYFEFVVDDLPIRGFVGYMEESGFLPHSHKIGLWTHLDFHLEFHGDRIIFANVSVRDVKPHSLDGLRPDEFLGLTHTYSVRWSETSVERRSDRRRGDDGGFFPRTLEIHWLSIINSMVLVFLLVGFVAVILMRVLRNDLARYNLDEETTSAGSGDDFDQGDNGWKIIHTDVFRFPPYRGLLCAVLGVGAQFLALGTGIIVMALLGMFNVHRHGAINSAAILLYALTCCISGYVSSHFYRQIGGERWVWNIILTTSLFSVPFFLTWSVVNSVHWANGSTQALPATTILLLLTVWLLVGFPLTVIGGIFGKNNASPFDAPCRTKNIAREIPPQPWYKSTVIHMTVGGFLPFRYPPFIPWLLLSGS
T4 sequence (Q92841 whole entry): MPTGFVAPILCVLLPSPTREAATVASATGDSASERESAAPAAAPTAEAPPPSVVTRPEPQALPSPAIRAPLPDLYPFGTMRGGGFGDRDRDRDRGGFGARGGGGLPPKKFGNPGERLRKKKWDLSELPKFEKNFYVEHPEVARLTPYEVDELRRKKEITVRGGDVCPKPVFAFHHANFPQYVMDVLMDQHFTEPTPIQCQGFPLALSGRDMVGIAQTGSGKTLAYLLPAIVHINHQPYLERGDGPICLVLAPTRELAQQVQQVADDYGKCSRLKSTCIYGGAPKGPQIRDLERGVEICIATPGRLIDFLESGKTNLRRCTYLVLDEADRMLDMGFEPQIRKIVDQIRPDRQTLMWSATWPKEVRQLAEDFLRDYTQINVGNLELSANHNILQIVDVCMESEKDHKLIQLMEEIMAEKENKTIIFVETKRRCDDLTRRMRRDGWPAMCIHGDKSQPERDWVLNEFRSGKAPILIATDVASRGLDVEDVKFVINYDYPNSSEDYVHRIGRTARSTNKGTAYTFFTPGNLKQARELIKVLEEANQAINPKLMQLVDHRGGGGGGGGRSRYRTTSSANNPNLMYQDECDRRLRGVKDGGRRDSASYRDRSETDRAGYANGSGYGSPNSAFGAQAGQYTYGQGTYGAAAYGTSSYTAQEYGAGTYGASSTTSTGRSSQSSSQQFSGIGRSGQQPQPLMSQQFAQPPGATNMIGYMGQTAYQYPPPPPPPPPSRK
T2 sequence (Q08211 whole entry): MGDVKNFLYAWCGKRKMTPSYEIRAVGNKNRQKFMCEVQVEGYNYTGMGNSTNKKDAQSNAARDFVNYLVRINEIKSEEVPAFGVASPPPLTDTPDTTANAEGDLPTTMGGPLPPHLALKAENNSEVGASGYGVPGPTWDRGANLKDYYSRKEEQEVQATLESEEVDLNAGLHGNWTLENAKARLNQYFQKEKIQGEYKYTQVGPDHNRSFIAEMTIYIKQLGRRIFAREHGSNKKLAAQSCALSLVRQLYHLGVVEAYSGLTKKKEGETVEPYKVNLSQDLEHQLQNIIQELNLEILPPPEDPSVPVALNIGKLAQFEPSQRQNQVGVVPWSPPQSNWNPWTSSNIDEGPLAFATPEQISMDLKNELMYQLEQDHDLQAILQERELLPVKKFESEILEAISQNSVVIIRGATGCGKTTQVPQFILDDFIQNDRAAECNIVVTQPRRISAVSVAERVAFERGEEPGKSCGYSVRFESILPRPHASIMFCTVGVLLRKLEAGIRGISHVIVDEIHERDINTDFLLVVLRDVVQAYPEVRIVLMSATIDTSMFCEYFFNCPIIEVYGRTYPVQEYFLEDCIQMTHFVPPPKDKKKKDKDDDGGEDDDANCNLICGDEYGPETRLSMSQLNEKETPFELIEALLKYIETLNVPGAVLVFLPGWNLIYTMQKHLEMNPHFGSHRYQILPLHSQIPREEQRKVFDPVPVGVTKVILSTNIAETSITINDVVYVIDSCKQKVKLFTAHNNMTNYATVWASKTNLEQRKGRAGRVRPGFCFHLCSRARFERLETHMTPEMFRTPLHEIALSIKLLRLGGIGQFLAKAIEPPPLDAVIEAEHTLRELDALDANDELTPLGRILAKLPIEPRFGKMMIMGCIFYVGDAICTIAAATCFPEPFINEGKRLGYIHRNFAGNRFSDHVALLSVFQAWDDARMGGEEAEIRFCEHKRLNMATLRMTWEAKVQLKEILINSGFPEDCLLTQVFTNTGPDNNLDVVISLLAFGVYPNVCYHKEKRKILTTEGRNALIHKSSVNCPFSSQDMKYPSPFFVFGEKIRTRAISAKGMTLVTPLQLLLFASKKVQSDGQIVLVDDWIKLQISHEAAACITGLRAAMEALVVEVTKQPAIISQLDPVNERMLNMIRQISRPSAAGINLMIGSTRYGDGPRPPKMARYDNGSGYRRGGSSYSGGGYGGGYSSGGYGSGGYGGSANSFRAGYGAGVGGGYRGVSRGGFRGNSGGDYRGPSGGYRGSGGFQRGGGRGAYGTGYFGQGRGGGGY

co-IP mass spectrometry count [1]: 7
co-IP mass spectrometry count [2]: 2
co-IP mass spectrometry count [3]: 0
B1: N-terminal FLAG tagged B3GNT2 (enzyme, human, UniProt Q9NY97 1-397, looked up)
chain: MSVGRRRIKLLGILMMANVFIYFIMEVSKSSSQEKNGKGEVIIPKEKFWKISTPPEAYWNREQEKLNRQYNPILSMLTNQTGEAGRLSNISHLNYCEPDLRVTSVVTGFNNLPDRFKDFLLYLRCRNYSLLIDQPDKCAKKPFLLLAIKSLTPHFARRQAIRESWGQESNAGNQTVVRVFLLGQTPPEDNHPDLSDMLKFESEKHQDILMWNYRDTFFNLSLKEVLFLRWVSTSCPDTEFVFKGDDDVFVNTHHILNYLNSLSKTKAKDLFIGDVIHNAGPHRDKKLKYYIPEVVYSGLYPPYAGGGGFLYSGHLALRLYHITDQVHLYPIDDVYTGMCLQKLGLVPEKHKGFRTFDIEEKNKNNICSYVDLMLVHSRKPQEMIDIWSQLQSAHLKC
notes: FLAG-tagged ORF overexpressed in cells; pulled down from lysate with mouse anti-FLAG; also called N-FLAG B3GNT2; N-term FLAG; not shown: N-terminal FLAG tag

co-IP/MS count, N-term FLAG [4]: 0
co-IP/MS count, N-term FLAG [5]: 23
co-IP/MS count, N-term FLAG [6]: 0
co-IP/MS count, N-term FLAG [7]: 10
B2: N-terminal FLAG tagged B3GNT2 (enzyme, human, UniProt Q9NY97 1-397, looked up)
chain: B1 chain
notes: FLAG-tagged ORF overexpressed in A375 cells; pulled down from the lysate with mouse anti-FLAG; also called N-FLAG B3GNT2; N-term FLAG; not shown: N-terminal FLAG tag
